Measured values as given in patent US20220281998A1 (AZUSAPHARMA SCIENCES, published 2022).

Tests used:
[1] = target: T1, recombinant biotinylated HER2 (manufactured by ACROBiosystems) (human, UniProt P04626 23-652, biotinylated (site not stated)); test: sandwich ELISA: immobilised human CD3E/CD3D heterodimer, BsAb, detection with biotinylated HER2
T1 construct: also called human HER2

[2] = target: human EGFR on human cancer cell lines (HCT116, A-431, NCI-H1975, HT-29, RKO) (human, UniProt P00533 25-1210); test: cell-based or functional assay
[3] = target: T2, human CD3E/CD3D heterodimer recombinant protein (manufactured by ACROBiosystems) (human, UniProt P07766 23-126; P04234 22-105); test: ELISA, immobilised human CD3E/CD3D heterodimer, 10-1000 ng/mL BsAb, absorbance rose with concentration
T2 construct: Bought reagent, immobilised on ELISA plates
T2 sequence (P07766 23-126 limits assumed, chain 1 of 2): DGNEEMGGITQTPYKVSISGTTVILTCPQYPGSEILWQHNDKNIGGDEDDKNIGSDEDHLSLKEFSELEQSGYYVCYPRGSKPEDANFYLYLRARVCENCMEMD
T2 sequence (P04234 22-105 limits assumed, chain 2 of 2): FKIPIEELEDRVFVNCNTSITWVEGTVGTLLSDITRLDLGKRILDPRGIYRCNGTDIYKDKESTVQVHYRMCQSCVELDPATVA

B1: LH31 diabody-type BsAb (EGFR×CD3 diabody-type BsAb derived from DUM-31H strain) (bispecific antibody)
chain 1: ATLTPDIQMTQSPSSLSASVGDRVTITCRASQDIRNYLNWYQQKPGKAPKLLIYYTSRLESGVPSRFSGSGSGTDYTLTISSLQPEDFATYYCQQGNTLPWTFGQGTKVEIKAAGGGGSEVQLVESGGGLVQPGGSLRLSCAASGFTLSGDWIHWVRQAPGKGLEWLGEISAAGGYTDYADSVKGRFTISADTSKNTAYLQMNSLRAEDTAVYYCARESRVSFEAAMDYWGQGTLVTVSSAAAAEQKLISEEDLNLGGGMRGSHHHHHH
chain 2: ATLTPDIQMTQSPSSLSASVGDRVTITCRASQDLATDVAWYQQKPGKAPKLLIYSASFLYSGVPSRFSGSGSGTDFTLTISSLQPEDFATYYCQQSEPEPYTFGQGTKVEIKAAGGGGSEVQLVESGGGLVQPGGSLRLSCAASGYSFTGYTMNWVRQAPGKGLEWVALINPYKGVSTYNQKFKDRFTISVDKSKNTAYLQMNSLRAEDTAVYYCARSGYYGDSDWYFDVWGQGTLVTVSSAAAEQKLISEEDLNLGGGMRGSHHHHHH
notes: Heterodimer of polypeptides 1 and 2, secreted by Bifidobacterium longum 105-A carrying pLH31-L5, purified through the His tag; also called LH31 polypeptide 1 + LH31 polypeptide 2 with SP50-L5
binding result [1]: no binding | EC50: concentration that reduced the viability of HCT116 cells to 50% (T-LAK:HCT116 5:1, 24 h) [2]: 0.032 nM | binding result [3]: binds
